Test results published in article PMC6910952 (Nature Communications, 2019).

Target: T1, GST-yNpl4 (full length, wild type) (Saccharomyces cerevisiae, UniProt P33755 1-580)
T1 construct: Npl4 of Saccharomyces cerevisiae (yNpl4), full length; codon-optimized synthetic cDNA; also called GST-Npl4; source: E. coli Rosetta (DE3) (pGEX-6P1), purified (Glutathione Sepharose FF, Resource Q); not shown: GST, N-terminal, kept
T1 sequence (looked up): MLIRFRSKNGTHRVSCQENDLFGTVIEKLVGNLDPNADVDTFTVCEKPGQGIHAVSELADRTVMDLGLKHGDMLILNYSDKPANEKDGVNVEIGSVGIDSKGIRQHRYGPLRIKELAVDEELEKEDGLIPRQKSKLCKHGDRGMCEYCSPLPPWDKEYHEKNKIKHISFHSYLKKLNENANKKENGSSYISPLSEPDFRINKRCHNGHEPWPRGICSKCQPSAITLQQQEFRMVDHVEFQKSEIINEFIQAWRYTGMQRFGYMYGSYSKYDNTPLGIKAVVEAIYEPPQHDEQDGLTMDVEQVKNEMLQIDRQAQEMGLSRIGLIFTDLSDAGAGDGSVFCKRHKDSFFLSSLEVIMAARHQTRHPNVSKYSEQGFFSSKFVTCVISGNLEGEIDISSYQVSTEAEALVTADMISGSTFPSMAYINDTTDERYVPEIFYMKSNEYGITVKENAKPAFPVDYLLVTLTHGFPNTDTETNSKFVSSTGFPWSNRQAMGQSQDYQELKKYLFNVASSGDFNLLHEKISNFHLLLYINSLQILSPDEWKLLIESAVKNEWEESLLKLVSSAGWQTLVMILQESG
Assay: pull-down; GST-yNpl4 (0.5 μM) on glutathione beads with 0.5 μM yUfd1 alone; full-length proteins; SDS-PAGE, Coomassie (Fig. 3e)
Details: both partners purified

B1: yUfd1 (full length, untagged) (natural protein, Saccharomyces cerevisiae, UniProt P53044 1-361, looked up)
chain: MFSGFSSFGGGNGFVNMPQTFEEFFRCYPIAMMNDRIRKDDANFGGKIFLPPSALSKLSMLNIRYPMLFKLTANETGRVTHGGVLEFIAEEGRVYLPQWMMETLGIQPGSLLQISSTDVPLGQFVKLEPQSVDFLDISDPKAVLENVLRNFSTLTVDDVIEISYNGKTFKIKILEVKPESSSKSICVIETDLVTDFAPPVGYVEPDYKALKAQQDKEKKNSFGKGQVLDPSVLGQGSMSTRIDYAGIANSSRNKLSKFVGQGQNISGKAPKAEPKQDIKDMKITFDGEPAKLDLPEGQLFFGFPMVLPKEDEESAAGSKSSEQNFQGQGISLRKSNKRKTKSDHDSSKSKAPKSPEVIEID
notes: Ufd1 of Saccharomyces cerevisiae (yUfd1), full length; codon-optimized synthetic cDNA; removal of GST by HRV3C is surmised; also called untagged Ufd1; source: E. coli Rosetta (DE3) (pGEX-6P1), purified
B1: binds.
